Assay results reported in patent publication US20060110396A1.

Molecular target: Human CDw52 (human) (UniProt P31358)
Test: cell-based or functional assay

51Cr release assay, lysis (apoptosis) of macrophage-cell line THP-1 after 18 h: 70% | 51Cr release assay, lysis (apoptosis) of macrophage-cell line U-937 after 18 h: 55%
Substance: CAMPATH (antibody)
